Key:
C00703 huCD40::Fc = biological target: T1, C00703 huCD40::Fc (human); assay: BLI (Octet); huCD40::Fc immobilized, masked protein at 100 nM in conditioned media; nm shift relative to unmasked control anti-Alb-anti-CD40
T1 construct: also called human CD40 protein; immobilized huCD40

[1] = biological target: CD40 on purified human B cells (human, UniProt P25942 21-277); assay: cell-based or functional assay
CD40 on purified human B cells, sequence (P25942 21-277): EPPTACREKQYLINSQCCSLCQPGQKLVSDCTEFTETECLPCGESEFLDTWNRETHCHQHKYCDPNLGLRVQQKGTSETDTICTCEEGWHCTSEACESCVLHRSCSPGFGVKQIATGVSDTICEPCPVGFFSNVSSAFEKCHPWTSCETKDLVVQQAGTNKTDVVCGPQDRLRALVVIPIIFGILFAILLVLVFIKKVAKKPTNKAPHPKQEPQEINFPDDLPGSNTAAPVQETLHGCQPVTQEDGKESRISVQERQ

T1 sequence (chain, as listed by the source limits assumed): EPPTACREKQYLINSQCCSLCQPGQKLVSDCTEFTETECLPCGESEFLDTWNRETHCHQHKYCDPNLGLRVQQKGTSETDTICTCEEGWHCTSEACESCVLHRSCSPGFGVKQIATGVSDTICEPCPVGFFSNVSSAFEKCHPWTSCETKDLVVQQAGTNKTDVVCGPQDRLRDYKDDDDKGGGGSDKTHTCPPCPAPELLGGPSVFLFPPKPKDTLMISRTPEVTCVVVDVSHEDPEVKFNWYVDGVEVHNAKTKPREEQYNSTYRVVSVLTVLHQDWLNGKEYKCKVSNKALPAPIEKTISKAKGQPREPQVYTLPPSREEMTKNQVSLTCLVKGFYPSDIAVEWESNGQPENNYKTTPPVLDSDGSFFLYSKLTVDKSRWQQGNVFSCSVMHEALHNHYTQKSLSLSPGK

Binder	Binding response (% of control) (C00703 huCD40::Fc)	Activity shift, B cell activation [1] [fold]	EC50 (M), B cell activation (percentage of CD86 positive B cells, flow cytometry, 48 hours) [1] [M]
anti-Alb-CD-2-D07 masked anti-CD40 protein with anti-CD40 heavy chain SEQ ID No. 73 (bispecific antibody, human IgG1, kappa, Built as m2; Signal domain left out; Tested in conditioned media; also called aAlb-CD-2-D07) heavy: not shown light: EVQLVESGGGLVQPGNSLTLSCAASGFTFSKFGMSWVRQARAATAGSGLEWVSSISGSGRDTLYADSVKGRFTISRDNAKTTLYLQMNSLRPEDTAVYYCTIGGSLSVSSQGTLVTVSSGGGGSGGGSGGGGSGGGSDIQMTQSPSSVSASVGDRVTITCRASQGIYSWLAWYQQKPGKAPNLLIYTASTLQSGVPSRFSGSGSGTDFTLTISSLQPEDFATYYCQQANIFPLTFGGGTKVEIKRTVAAPSVFIFPPSDEQLKSGTASVVCLLNNFYPREAKVQWKVDNALQSGNSQESVTEQDSKDSTYSLSSTLTLSKADYEKHKVYACEVTHQGLSSPVTKSFNRGEC	48 % of control	–	–
anti-Alb-CD-2-B07 masked anti-CD40 protein with anti-CD40 heavy chain SEQ ID No. 73 (bispecific antibody, human IgG1, kappa, Built as m2; Signal domain left out; Tested in conditioned media; also called aAlb-CD-2-B07) heavy: not shown light: EVQLVESGGGLVQPGNSLTLSCAASGFTFSKFGMSWVRQAVRPRGTGGLEWVSSISGSGRDTLYADSVKGRFTISRDNAKTTLYLQMNSLRPEDTAVYYCTIGGSLSVSSQGTLVTVSSGGGGSGGGSGGGGSGGGSDIQMTQSPSSVSASVGDRVTITCRASQGIYSWLAWYQQKPGKAPNLLIYTASTLQSGVPSRFSGSGSGTDFTLTISSLQPEDFATYYCQQANIFPLTFGGGTKVEIKRTVAAPSVFIFPPSDEQLKSGTASVVCLLNNFYPREAKVQWKVDNALQSGNSQESVTEQDSKDSTYSLSSTLTLSKADYEKHKVYACEVTHQGLSSPVTKSFNRGEC	64 % of control	–	–
anti-Alb-CD-2-D08 masked anti-CD40 protein with anti-CD40 heavy chain SEQ ID No. 73 (bispecific antibody, human IgG1, kappa, Built as m2; Signal domain left out; Tested in conditioned media; also called aAlb-CD-2-D08) heavy: not shown light: EVQLVESGGGLVQPGNSLTLSCAASGFTFSKFGMSWVRQATSWRHERGLEWVSSISGSGRDTLYADSVKGRFTISRDNAKTTLYLQMNSLRPEDTAVYYCTIGGSLSVSSQGTLVTVSSGGGGSGGGSGGGGSGGGSDIQMTQSPSSVSASVGDRVTITCRASQGIYSWLAWYQQKPGKAPNLLIYTASTLQSGVPSRFSGSGSGTDFTLTISSLQPEDFATYYCQQANIFPLTFGGGTKVEIKRTVAAPSVFIFPPSDEQLKSGTASVVCLLNNFYPREAKVQWKVDNALQSGNSQESVTEQDSKDSTYSLSSTLTLSKADYEKHKVYACEVTHQGLSSPVTKSFNRGEC	68 % of control	–	–
anti-Alb mask070 L040 anti-CD40, C2905, C2764, L040 (-) Protease (bispecific antibody, human IgG1, kappa) heavy: not shown light: EVQLVESGGGLVQPGNSLTLSCAASGFTFSKFGMSWVRQARAASAGQGLEWVSSISGSGRDTLYADSVKGRFTISRDNAKTTLYLQMNSLRPEDTAVYYCTIGGSLSVSSQGTLVTVSSGGGGPQASTGRSGGGGSDIQMTQSPSSVSASVGDRVTITCRASQGIYSWLAWYQQKPGKAPNLLIYTASTLQSGVPSRFSGSGSGTDFTLTISSLQPEDFATYYCQQANIFPLTFGGGTKVEIKRTVAAPSVFIFPPSDEQLKSGTASVVCLLNNFYPREAKVQWKVDNALQSGNSQESVTEQDSKDSTYSLSSTLTLSKADYEKHKVYACEVTHQGLSSPVTKSFNRGEC	–	2000	–
anti-Alb mask070 L040 anti-CD40, C2905, C2764, L040 (+) Protease (antibody) heavy: not shown light: EVQLVESGGGLVQPGNSLTLSCAASGFTFSKFGMSWVRQARAASAGQGLEWVSSISGSGRDTLYADSVKGRFTISRDNAKTTLYLQMNSLRPEDTAVYYCTIGGSLSVSSQGTLVTVSSGGGGPQASTGRSGGGGSDIQMTQSPSSVSASVGDRVTITCRASQGIYSWLAWYQQKPGKAPNLLIYTASTLQSGVPSRFSGSGSGTDFTLTISSLQPEDFATYYCQQANIFPLTFGGGTKVEIKRTVAAPSVFIFPPSDEQLKSGTASVVCLLNNFYPREAKVQWKVDNALQSGNSQESVTEQDSKDSTYSLSSTLTLSKADYEKHKVYACEVTHQGLSSPVTKSFNRGEC	–	1	1.6e-11
anti-Alb-CD-2-A10 masked anti-CD40 protein with anti-CD40 heavy chain SEQ ID No. 73 (bispecific antibody, human IgG1, kappa, Built as m2; Signal domain left out; Tested in conditioned media; also called aAlb-CD-2-A10) heavy: not shown light: EVQLVESGGGLVQPGNSLTLSCAASGFTFSKFGMSWVRQAVGTRETSGGLEWVSSISGSGRDTLYADSVKGRFTISRDNAKTTLYLQMNSLRPEDTAVYYCTIGGSLSVSSQGTLVTVSSGGGGSGGGSGGGGSGGGSDIQMTQSPSSVSASVGDRVTITCRASQGIYSWLAWYQQKPGKAPNLLIYTASTLQSGVPSRFSGSGSGTDFTLTISSLQPEDFATYYCQQANIFPLTFGGGTKVEIKRTVAAPSVFIFPPSDEQLKSGTASVVCLLNNFYPREAKVQWKVDNALQSGNSQESVTEQDSKDSTYSLSSTLTLSKADYEKHKVYACEVTHQGLSSPVTKSFNRGEC	65 % of control	–	–
anti-Alb-CD-1-F06 masked anti-CD40 protein with anti-CD40 heavy chain SEQ ID No. 73 (bispecific antibody, human IgG1, kappa, Built as m2; Signal domain left out; Tested in conditioned media; also called aAlb-CD-1-F06) heavy: not shown light: EVQLVESGGGLVQPGNSLTLSCAASGFTFSKFGMSWVRQAVRTRRTSGGLEWVSSISGSGRDTLYADSVKGRFTISRDNAKTTLYLQMNSLRPEDTAVYYCTIGGSLSVSSQGTLVTVSSGGGGSGGGSGGGGSGGGSDIQMTQSPSSVSASVGDRVTITCRASQGIYSWLAWYQQKPGKAPNLLIYTASTLQSGVPSRFSGSGSGTDFTLTISSLQPEDFATYYCQQANIFPLTFGGGTKVEIKRTVAAPSVFIFPPSDEQLKSGTASVVCLLNNFYPREAKVQWKVDNALQSGNSQESVTEQDSKDSTYSLSSTLTLSKADYEKHKVYACEVTHQGLSSPVTKSFNRGEC	57 % of control	–	–
anti-Alb-CD-2-C05 masked anti-CD40 protein with anti-CD40 heavy chain SEQ ID No. 73 (bispecific antibody, human IgG1, kappa, Built as m2; Signal domain left out; Tested in conditioned media; also called aAlb-CD-2-C05) heavy: not shown light: EVQLVESGGGLVQPGNSLTLSCAASGFTFSKFGMSWVRQALGRHESSVGLEWVSSISGSGRDTLYADSVKGRFTISRDNAKTTLYLQMNSLRPEDTAVYYCTIGGSLSVSSQGTLVTVSSGGGGSGGGSGGGGSGGGSDIQMTQSPSSVSASVGDRVTITCRASQGIYSWLAWYQQKPGKAPNLLIYTASTLQSGVPSRFSGSGSGTDFTLTISSLQPEDFATYYCQQANIFPLTFGGGTKVEIKRTVAAPSVFIFPPSDEQLKSGTASVVCLLNNFYPREAKVQWKVDNALQSGNSQESVTEQDSKDSTYSLSSTLTLSKADYEKHKVYACEVTHQGLSSPVTKSFNRGEC	31 % of control	–	–
anti-Alb-CD-2-C11 masked anti-CD40 protein with anti-CD40 heavy chain SEQ ID No. 73 (bispecific antibody, human IgG1, kappa, Built as m2; Signal domain left out; Tested in conditioned media; also called aAlb-CD-2-C11) heavy: not shown light: EVQLVESGGGLVQPGNSLTLSCAASGFTFSKFGMSWVRQALGRRETSVGLEWVSSISGSGRDTLYADSVKGRFTISRDNAKTTLYLQMNSLRPEDTAVYYCTIGGSLSVSSQGTLVTVSSGGGGSGGGSGGGGSGGGSDIQMTQSPSSVSASVGDRVTITCRASQGIYSWLAWYQQKPGKAPNLLIYTASTLQSGVPSRFSGSGSGTDFTLTISSLQPEDFATYYCQQANIFPLTFGGGTKVEIKRTVAAPSVFIFPPSDEQLKSGTASVVCLLNNFYPREAKVQWKVDNALQSGNSQESVTEQDSKDSTYSLSSTLTLSKADYEKHKVYACEVTHQGLSSPVTKSFNRGEC	63 % of control	–	–
anti-Alb-CD-2-D06 masked anti-CD40 protein with anti-CD40 heavy chain SEQ ID No. 73 (bispecific antibody, human IgG1, kappa, Built as m2; Signal domain left out; Tested in conditioned media; also called aAlb-CD-2-D06) heavy: not shown light: EVQLVESGGGLVQPGNSLTLSCAASGFTFSKFGMSWVRQAMNRHENDRGLEWVSSISGSGRDTLYADSVKGRFTISRDNAKTTLYLQMNSLRPEDTAVYYCTIGGSLSVSSQGTLVTVSSGGGGSGGGSGGGGSGGGSDIQMTQSPSSVSASVGDRVTITCRASQGIYSWLAWYQQKPGKAPNLLIYTASTLQSGVPSRFSGSGSGTDFTLTISSLQPEDFATYYCQQANIFPLTFGGGTKVEIKRTVAAPSVFIFPPSDEQLKSGTASVVCLLNNFYPREAKVQWKVDNALQSGNSQESVTEQDSKDSTYSLSSTLTLSKADYEKHKVYACEVTHQGLSSPVTKSFNRGEC	42 % of control	–	–
anti-Alb-CD-2-D09 masked anti-CD40 protein with anti-CD40 heavy chain SEQ ID No. 73 (bispecific antibody, human IgG1, kappa, Built as m2; Signal domain left out; Tested in conditioned media; also called aAlb-CD-2-D09) heavy: not shown light: EVQLVESGGGLVQPGNSLTLSCAASGFTFSKFGMSWVRQAVRTRGTSGGLEWVSSISGSGRDTLYADSVKGRFTISRDNAKTTLYLQMNSLRPEDTAVYYCTIGGSLSVSSQGTLVTVSSGGGGSGGGSGGGGSGGGSDIQMTQSPSSVSASVGDRVTITCRASQGIYSWLAWYQQKPGKAPNLLIYTASTLQSGVPSRFSGSGSGTDFTLTISSLQPEDFATYYCQQANIFPLTFGGGTKVEIKRTVAAPSVFIFPPSDEQLKSGTASVVCLLNNFYPREAKVQWKVDNALQSGNSQESVTEQDSKDSTYSLSSTLTLSKADYEKHKVYACEVTHQGLSSPVTKSFNRGEC	66 % of control	–	–
anti-Alb-CD-2-F09 masked anti-CD40 protein with anti-CD40 heavy chain SEQ ID No. 73 (bispecific antibody, human IgG1, kappa, Built as m2; Signal domain left out; Tested in conditioned media; also called aAlb-CD-2-F09) heavy: not shown light: EVQLVESGGGLVQPGNSLTLSCAASGFTFSKFGMSWVRQAPYSQPTKAGLEWVSSISGSGRDTLYADSVKGRFTISRDNAKTTLYLQMNSLRPEDTAVYYCTIGGSLSVSSQGTLVTVSSGGGGSGGGSGGGGSGGGSDIQMTQSPSSVSASVGDRVTITCRASQGIYSWLAWYQQKPGKAPNLLIYTASTLQSGVPSRFSGSGSGTDFTLTISSLQPEDFATYYCQQANIFPLTFGGGTKVEIKRTVAAPSVFIFPPSDEQLKSGTASVVCLLNNFYPREAKVQWKVDNALQSGNSQESVTEQDSKDSTYSLSSTLTLSKADYEKHKVYACEVTHQGLSSPVTKSFNRGEC	75 % of control	–	–
anti-Alb-CD-2-F10 masked anti-CD40 protein with anti-CD40 heavy chain SEQ ID No. 73 (bispecific antibody, human IgG1, kappa, Built as m2; Signal domain left out; Tested in conditioned media; also called aAlb-CD-2-F10) heavy: not shown light: EVQLVESGGGLVQPGNSLTLSCAASGFTFSKFGMSWVRQAVGPRETSGGLEWVSSISGSGRDTLYADSVKGRFTISRDNAKTTLYLQMNSLRPEDTAVYYCTIGGSLSVSSQGTLVTVSSGGGGSGGGSGGGGSGGGSDIQMTQSPSSVSASVGDRVTITCRASQGIYSWLAWYQQKPGKAPNLLIYTASTLQSGVPSRFSGSGSGTDFTLTISSLQPEDFATYYCQQANIFPLTFGGGTKVEIKRTVAAPSVFIFPPSDEQLKSGTASVVCLLNNFYPREAKVQWKVDNALQSGNSQESVTEQDSKDSTYSLSSTLTLSKADYEKHKVYACEVTHQGLSSPVTKSFNRGEC	63 % of control	–	–
anti-Alb-CD-1-A09 masked anti-CD40 protein with anti-CD40 heavy chain SEQ ID No. 73 (bispecific antibody, human IgG1, kappa, Built as m2; Signal domain left out; Tested in conditioned media; also called aAlb-CD-1-A09) heavy: not shown light: EVQLVESGGGLVQPGNSLTLSCAASGFTFSKFGMSWVRQAPGSQKPGLEWVSSISGSGRDTLYADSVKGRFTISRDNAKTTLYLQMNSLRPEDTAVYYCTIGGSLSVSSQGTLVTVSSGGGGSGGGSGGGGSGGGSDIQMTQSPSSVSASVGDRVTITCRASQGIYSWLAWYQQKPGKAPNLLIYTASTLQSGVPSRFSGSGSGTDFTLTISSLQPEDFATYYCQQANIFPLTFGGGTKVEIKRTVAAPSVFIFPPSDEQLKSGTASVVCLLNNFYPREAKVQWKVDNALQSGNSQESVTEQDSKDSTYSLSSTLTLSKADYEKHKVYACEVTHQGLSSPVTKSFNRGEC	67 % of control	–	–

Source: US20210355219A1 (HARPOON THERAPEUTICS, published 2021)
